Reference: the supplement of paper PMC12042874
± gives the uncertainty stated by the source.

assay: amyloid nucleation score (Sup35N fusion, yeast selection) (log enrichment); library NNK1; higher = more nucleation; inactive = no reads after selection
Summary of the method: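 Peptides of 20 random codons fused to Sup35N were expressed in psi-negative yeast, induced 24 hours with 100 μM copper sulfate, then grown 7 days at 30°C on medium lacking adenine and uracil. Input and output plasmid inserts were Illumina-sequenced. Nucleation score is the DiMSum log enrichment of output over input reads, centred on the mode score of non-aggregating sequences, excluding sequences with under 100 input reads. Random libraries had three technical output replicates.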

With AAALRIIGHYMRALLTELLQ as the substance, how does the amyloid nucleation score read?
The amyloid nucleation score was 0.687 ± 0.46.

With AALWHFNFINRSFRTVGPAG as the substance, how does the amyloid nucleation score read?
The amyloid nucleation score was -0.569 ± 0.38.

With AAPRWSYEAASANAMLFVIL as the substance, how does the amyloid nucleation score read?
The amyloid nucleation score was 2.89 ± 0.25.

With ACFEFKLGTFRLGAALNYPG as the substance, how does the amyloid nucleation score read?
The amyloid nucleation score was 1.03 ± 0.31.

With ACLSNGKWKYPLGYESSLRR as the substance, how does the amyloid nucleation score read?
The amyloid nucleation score was -0.968 ± 1.1.

Which amyloid nucleation score does the source give for ACNCHMWV here?
The amyloid nucleation score was 1.31 ± 0.59.

With ACPDHMRV as the substance, how does the amyloid nucleation score read?
The amyloid nucleation score was 1.33 ± 0.62.

With ACRDVGHSVVLCKFKS as the substance, how does the amyloid nucleation score read?
Its amyloid nucleation score is -1.01 ± 1.4.

Which amyloid nucleation score does the source give for ADACVRFLRGYYFNGFPMRW here?
The amyloid nucleation score was 1.03 ± 0.9.

For ADCGRSVLTKVKRCDTFFSG, which amyloid nucleation score is on record?
The amyloid nucleation score was 0.023 ± 0.27.

With ADDGAVLCRCEAGGTSWSVC as the substance, how does the amyloid nucleation score read?
Its amyloid nucleation score is “inactive”.

With ADFVSFSSFYFWWHVVSLDT as the substance, how does the amyloid nucleation score read?
Its amyloid nucleation score is 0.238 ± 0.56.

With ADILWARFLWMSEGIH as the substance, how does the amyloid nucleation score read?
The amyloid nucleation score was 0.054 ± 0.23.

Which amyloid nucleation score does the source give for ADLRVFHYRYFGS here?
The amyloid nucleation score was -0.223 ± 0.49.

Which amyloid nucleation score does the source give for AEASKYVMYIKARCMQLMRS here?
Its amyloid nucleation score is -0.931 ± 1.1.

With AEKSFWHSSNPFIALPRTHR as the substance, how does the amyloid nucleation score read?
The amyloid nucleation score was -1 ± 0.93.

Which amyloid nucleation score does the source give for AFCIFCSRLAEIAHLAF here?
The amyloid nucleation score was 7.133 ± 0.046.

For AFCNVADCNIRGSWLVRLRR, which amyloid nucleation score is on record?
Its amyloid nucleation score is 1.21 ± 0.41.

Which amyloid nucleation score does the source give for AFCRCNNRKVEQLMNLCGVF here?
Its amyloid nucleation score is -0.771 ± 0.49.

Which amyloid nucleation score does the source give for AFFPGNFWACGSFDFLWYWL here?
Its amyloid nucleation score is 3.38 ± 0.083.

Which amyloid nucleation score does the source give for AFFYVVCFDVCKMSTMYLFG here?
Its amyloid nucleation score is -2.44 ± 2.4.

For AFHLTSSSLFLFSWNSWVAV, which amyloid nucleation score is on record?
The amyloid nucleation score was 5.3 ± 0.082.

For AFIKNLTLCLDWTHSGAVYM, which amyloid nucleation score is on record?
Its amyloid nucleation score is 7.24 ± 0.08.

Which amyloid nucleation score does the source give for AFKNAAGMRGMTWISSEVGA here?
The amyloid nucleation score was 0.145 ± 0.42.

For AFLMMSTVAPTLWMIMPSYS, which amyloid nucleation score is on record?
The amyloid nucleation score was 0.446 ± 0.48.

For AFMSRVGLHW, which amyloid nucleation score is on record?
The amyloid nucleation score was 0.691 ± 0.25.

Which amyloid nucleation score does the source give for AFNSFIGFHCPSDVWCMKRN here?
The amyloid nucleation score was 5.25 ± 0.051.

For AFRTS, which amyloid nucleation score is on record?
Its amyloid nucleation score is -0.203 ± 0.43.

Which amyloid nucleation score does the source give for AFRYDRVWVGQQLFGQECRP here?
Its amyloid nucleation score is 0.054 ± 0.46.

Which amyloid nucleation score does the source give for AFVEGRMNHPYSGTMLSRRG here?
The amyloid nucleation score was 0.418 ± 0.53.

With AFYGVDFSSGRGLFSY as the substance, how does the amyloid nucleation score read?
The amyloid nucleation score was -0.574 ± 1.1.

With AGDTGFTHTYSCWIKQWFVF as the substance, how does the amyloid nucleation score read?
Its amyloid nucleation score is 0.705 ± 0.47.

For AGECRYLLMSVDGYIGLNLV, which amyloid nucleation score is on record?
The amyloid nucleation score was 1.07 ± 0.48.

For AGHYLCGSITNLTA, which amyloid nucleation score is on record?
Its amyloid nucleation score is 0.721 ± 0.97.

For AGLMTGATSLQLMKFCSLGG, which amyloid nucleation score is on record?
Its amyloid nucleation score is -0.729 ± 0.71.

For AGNFVVPMDAE, which amyloid nucleation score is on record?
The amyloid nucleation score was 1.62 ± 0.41.

For AGSFFSYGQFVKFTVLYHSE, which amyloid nucleation score is on record?
Its amyloid nucleation score is -0.053 ± 0.6.

With AGSGRGRGGCTSNRSDYSSG as the substance, how does the amyloid nucleation score read?
Its amyloid nucleation score is -0.849 ± 1.

Which amyloid nucleation score does the source give for AGVAGL here?
Its amyloid nucleation score is -0.661 ± 0.4.

With AGYFCL as the substance, how does the amyloid nucleation score read?
Its amyloid nucleation score is -0.449 ± 0.47.

With AHFVRVDHNGGGLCMLGISR as the substance, how does the amyloid nucleation score read?
Its amyloid nucleation score is -1.21 ± 0.86.

With AHGRHDLRWCLRSRDSMWRA as the substance, how does the amyloid nucleation score read?
The amyloid nucleation score was 1.2 ± 0.53.

For AHLEGYYHWHYSEFWSVVVK, which amyloid nucleation score is on record?
Its amyloid nucleation score is -0.437 ± 0.31.

With AHLRCDREDIVESTSECGVG as the substance, how does the amyloid nucleation score read?
Its amyloid nucleation score is “inactive”.

With AIFNLVSSL as the substance, how does the amyloid nucleation score read?
The amyloid nucleation score was -0.792 ± 1.

With AIRPSIR as the substance, how does the amyloid nucleation score read?
Its amyloid nucleation score is -0.318 ± 0.33.

With AISYDTYYTGELSSLWSGLS as the substance, how does the amyloid nucleation score read?
Its amyloid nucleation score is 0.666 ± 0.57.

With AIVYRQKLISQLYFARLLRH as the substance, how does the amyloid nucleation score read?
Its amyloid nucleation score is 0.063 ± 1.4.

Which amyloid nucleation score does the source give for AKCGICLFYGM here?
Its amyloid nucleation score is -0.358 ± 0.36.

For AKLMGCYMQRSICITRVPFL, which amyloid nucleation score is on record?
The amyloid nucleation score was 0.702 ± 0.51.

For ALCYWNSTVD, which amyloid nucleation score is on record?
Its amyloid nucleation score is -0.057 ± 0.41.

With ALEWHGQTYSFRIEI as the substance, how does the amyloid nucleation score read?
The amyloid nucleation score was 0.537 ± 0.36.

For ALFGERPCCRC, which amyloid nucleation score is on record?
The amyloid nucleation score was 0.158 ± 0.28.

With ALGYIPPRRCMTGSPPSVPR as the substance, how does the amyloid nucleation score read?
Its amyloid nucleation score is 0.529 ± 0.84.

With ALNFTYLVSSNKHRSED as the substance, how does the amyloid nucleation score read?
The amyloid nucleation score was 5.12 ± 0.1.

With ALQTPFSKNMEYCCNQ as the substance, how does the amyloid nucleation score read?
Its amyloid nucleation score is 0.222 ± 0.41.

Which amyloid nucleation score does the source give for ALRAP here?
Its amyloid nucleation score is -0.383 ± 0.62.

For ALSLVISCSGSWRKGRRFLS, which amyloid nucleation score is on record?
The amyloid nucleation score was -0.53 ± 0.64.

For ALWNLCCHLGDGTAADSTVY, which amyloid nucleation score is on record?
The amyloid nucleation score was -0.46 ± 1.9.

For ALYSDRDI, which amyloid nucleation score is on record?
The amyloid nucleation score was 0.939 ± 0.29.

With AMDMSADAGDSWNCGCQYSN as the substance, how does the amyloid nucleation score read?
The amyloid nucleation score was “inactive”.

Which amyloid nucleation score does the source give for AMQKESRGTWGSVTAQVHGM here?
Its amyloid nucleation score is 0.304 ± 0.59.

Which amyloid nucleation score does the source give for ANDMMRKDCTFDTSVFMESV here?
Its amyloid nucleation score is -0.379 ± 0.26.

With ANKLCSVKQQTPRLRWYMGS as the substance, how does the amyloid nucleation score read?
Its amyloid nucleation score is 0.856 ± 0.48.

With ANLACACCCYP as the substance, how does the amyloid nucleation score read?
Its amyloid nucleation score is -0.146 ± 0.96.

For ANLDYWRSSTFTEHMVGLNR, which amyloid nucleation score is on record?
Its amyloid nucleation score is -0.469 ± 1.2.

With ANLKISSALDVVRHRRKYQY as the substance, how does the amyloid nucleation score read?
Its amyloid nucleation score is 0.014 ± 0.54.

With ANSVIFDGRSKGLAKHTVSY as the substance, how does the amyloid nucleation score read?
Its amyloid nucleation score is -0.276 ± 0.65.

For ANTNAFKHLNYILMVLVLQG, which amyloid nucleation score is on record?
The amyloid nucleation score was “inactive”.

For APEVNRLTCSYRSDRLKTS, which amyloid nucleation score is on record?
Its amyloid nucleation score is 0.095 ± 0.83.

For APGWTVDTSPYSAGVCVVTP, which amyloid nucleation score is on record?
The amyloid nucleation score was 0.099 ± 0.4.

Which amyloid nucleation score does the source give for APMHINLWRDGTNVGQDWVV here?
Its amyloid nucleation score is 1.88 ± 0.69.

With APQSRFNHEYFFENIRRVVV as the substance, how does the amyloid nucleation score read?
The amyloid nucleation score was “inactive”.

With APRAAN as the substance, how does the amyloid nucleation score read?
Its amyloid nucleation score is -0.126 ± 0.41.

With APSNNFCNNGLMFRYVRPGD as the substance, how does the amyloid nucleation score read?
The amyloid nucleation score was 2.81 ± 0.21.

For APSTDGMNMPTNGDRTPTLW, which amyloid nucleation score is on record?
Its amyloid nucleation score is 0.245 ± 0.42.

For APTRACSNGDMLREE, which amyloid nucleation score is on record?
Its amyloid nucleation score is 1.35 ± 0.51.

For AQAVLQLETRTIKIYRDGPK, which amyloid nucleation score is on record?
Its amyloid nucleation score is -1.08 ± 2.7.

With AQKCPALYRLMNMPEKEKVG as the substance, how does the amyloid nucleation score read?
The amyloid nucleation score was 0.18 ± 0.43.

Which amyloid nucleation score does the source give for AQNLDPQWWCLVRCDCYPL here?
The amyloid nucleation score was -0.49 ± 0.65.

For ARITMYLCFNRLLVGKVCSG, which amyloid nucleation score is on record?
The amyloid nucleation score was -0.176 ± 1.1.

For ARLSL, which amyloid nucleation score is on record?
The amyloid nucleation score was 0.157 ± 0.64.

Which amyloid nucleation score does the source give for ARQGASLGVK here?
Its amyloid nucleation score is -1.11 ± 1.5.

Which amyloid nucleation score does the source give for ARVPSKYRVEVHGRKKAWRG here?
Its amyloid nucleation score is -0.814 ± 0.6.
